Measured values as given in PMC6751169.

Experiments:
[1] = target: T1, MenDRA (MenD-RIAD with one RIAD peptide tag) (E. coli); assay: SEC; 1.5 mg of enzyme fused with RIAD mixed with two-fold molar excess of enzyme fused with RIDD in Tris buffer pH 7.8, 1 mM EDTA, 0.02% Tween-20, no incubation; Superdex 200 10/300 GL, 0.4 mL/min, Tris pH 7.8, 50 mM NaCl; masses from a calibration curve
T1 sequence (P17109 whole entry, looked up): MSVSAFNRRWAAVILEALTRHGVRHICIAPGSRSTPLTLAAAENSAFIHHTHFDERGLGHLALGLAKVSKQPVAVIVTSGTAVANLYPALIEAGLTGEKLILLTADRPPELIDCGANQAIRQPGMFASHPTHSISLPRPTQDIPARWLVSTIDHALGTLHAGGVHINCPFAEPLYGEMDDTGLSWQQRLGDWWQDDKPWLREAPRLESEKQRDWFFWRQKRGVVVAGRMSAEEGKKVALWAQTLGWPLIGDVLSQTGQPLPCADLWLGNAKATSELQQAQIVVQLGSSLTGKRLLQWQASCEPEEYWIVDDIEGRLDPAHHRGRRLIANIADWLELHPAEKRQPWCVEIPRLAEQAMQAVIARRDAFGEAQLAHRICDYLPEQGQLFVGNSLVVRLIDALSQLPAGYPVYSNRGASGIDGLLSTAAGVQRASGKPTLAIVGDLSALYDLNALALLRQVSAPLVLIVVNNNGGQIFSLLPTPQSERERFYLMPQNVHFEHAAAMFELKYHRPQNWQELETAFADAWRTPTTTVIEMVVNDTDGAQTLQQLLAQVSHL

[2] = target: T2, MenDRA2 (MenD-RIAD-RIAD with two sequential RIAD peptide tags) (E. coli); assay: as above
T2 sequence (P17109 whole entry, looked up): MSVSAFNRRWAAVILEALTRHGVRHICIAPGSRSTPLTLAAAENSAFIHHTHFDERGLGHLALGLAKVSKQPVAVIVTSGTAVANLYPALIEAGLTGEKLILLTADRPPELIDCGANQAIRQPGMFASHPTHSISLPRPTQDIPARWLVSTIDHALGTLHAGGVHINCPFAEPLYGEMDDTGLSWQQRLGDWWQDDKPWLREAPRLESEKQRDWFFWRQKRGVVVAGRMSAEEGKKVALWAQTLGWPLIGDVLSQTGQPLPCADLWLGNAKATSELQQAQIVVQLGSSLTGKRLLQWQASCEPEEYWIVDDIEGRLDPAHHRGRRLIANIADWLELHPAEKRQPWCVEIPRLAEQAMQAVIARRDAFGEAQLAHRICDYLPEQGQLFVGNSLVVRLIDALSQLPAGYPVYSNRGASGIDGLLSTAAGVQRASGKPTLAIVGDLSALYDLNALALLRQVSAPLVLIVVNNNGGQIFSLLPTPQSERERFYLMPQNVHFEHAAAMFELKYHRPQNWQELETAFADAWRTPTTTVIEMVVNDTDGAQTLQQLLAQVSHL

- stoichiometry N (MenH per 4 MenD (per particle)) [1]: 8
- stoichiometry N (MenH per 4 MenD (per particle)) [2]: 16
B1: MenHRD (MenH-RIDD with one RIDD peptide tag), P10644 1-44 (enzyme)
chain: MILHAQAKHGKPGLPWLVFLHGFSGDCHEWQEVGEAFADYSRLYVDLPGHGGSAAISVDGFDDVTDLLRKTLVSYNILDFWLVGYSLGGRVAMMAACQGLAGLCGVIVEGGHPGLQNAEQRAERQRSDRQWVQRFLTEPLTAVFADWYQQPVFASLNDDQRRELVALRSNNNGATLAAMLEATSLAVQPDLRANLSARTFAFYYLCGERDSKFRALAAELAADCHVIPRAGHNAHRENPAGVIASLAQILRFGGGGSGGGGSGGGGSSLRECELYVQKHNIQALLKDSIVQLCTARPERPMAFLREYFEKLEKEEAK
modifications: not checked
